{
  "source": "patent US20070218075",
  "key": {"[1]": {"target": "T1, 1Q FnbA mutant (recombinant Gln103Ala FnbA mutant, residues Ala1-Pro839)", "T1 chain": "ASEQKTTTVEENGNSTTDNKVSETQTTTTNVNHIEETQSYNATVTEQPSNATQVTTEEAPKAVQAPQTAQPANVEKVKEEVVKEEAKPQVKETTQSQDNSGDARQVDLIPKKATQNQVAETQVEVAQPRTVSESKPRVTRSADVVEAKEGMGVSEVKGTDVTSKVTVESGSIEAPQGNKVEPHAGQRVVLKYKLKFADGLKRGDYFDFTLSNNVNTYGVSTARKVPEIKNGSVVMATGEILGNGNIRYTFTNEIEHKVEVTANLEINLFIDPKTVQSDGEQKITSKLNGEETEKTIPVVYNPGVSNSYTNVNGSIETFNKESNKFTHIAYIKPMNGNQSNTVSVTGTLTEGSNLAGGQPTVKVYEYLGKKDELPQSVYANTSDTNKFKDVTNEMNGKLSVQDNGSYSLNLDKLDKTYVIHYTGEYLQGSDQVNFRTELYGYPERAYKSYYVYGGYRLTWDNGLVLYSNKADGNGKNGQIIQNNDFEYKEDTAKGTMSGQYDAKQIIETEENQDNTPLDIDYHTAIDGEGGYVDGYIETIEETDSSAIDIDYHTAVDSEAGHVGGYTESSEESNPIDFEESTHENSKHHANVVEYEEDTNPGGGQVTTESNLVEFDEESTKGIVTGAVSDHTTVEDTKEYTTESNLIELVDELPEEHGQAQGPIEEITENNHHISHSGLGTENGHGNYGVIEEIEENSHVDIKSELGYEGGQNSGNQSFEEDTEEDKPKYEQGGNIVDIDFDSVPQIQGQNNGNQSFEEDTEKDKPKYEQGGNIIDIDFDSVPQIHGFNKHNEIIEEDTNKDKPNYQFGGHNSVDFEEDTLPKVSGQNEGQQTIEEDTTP"}, "[2]": {"target": "T2, recombinant fibronectin-binding protein A (rFnbA) comprising residues Ala1 through Pro839 from S. aureus strain ATCC49525, wild type", "T2 chain": "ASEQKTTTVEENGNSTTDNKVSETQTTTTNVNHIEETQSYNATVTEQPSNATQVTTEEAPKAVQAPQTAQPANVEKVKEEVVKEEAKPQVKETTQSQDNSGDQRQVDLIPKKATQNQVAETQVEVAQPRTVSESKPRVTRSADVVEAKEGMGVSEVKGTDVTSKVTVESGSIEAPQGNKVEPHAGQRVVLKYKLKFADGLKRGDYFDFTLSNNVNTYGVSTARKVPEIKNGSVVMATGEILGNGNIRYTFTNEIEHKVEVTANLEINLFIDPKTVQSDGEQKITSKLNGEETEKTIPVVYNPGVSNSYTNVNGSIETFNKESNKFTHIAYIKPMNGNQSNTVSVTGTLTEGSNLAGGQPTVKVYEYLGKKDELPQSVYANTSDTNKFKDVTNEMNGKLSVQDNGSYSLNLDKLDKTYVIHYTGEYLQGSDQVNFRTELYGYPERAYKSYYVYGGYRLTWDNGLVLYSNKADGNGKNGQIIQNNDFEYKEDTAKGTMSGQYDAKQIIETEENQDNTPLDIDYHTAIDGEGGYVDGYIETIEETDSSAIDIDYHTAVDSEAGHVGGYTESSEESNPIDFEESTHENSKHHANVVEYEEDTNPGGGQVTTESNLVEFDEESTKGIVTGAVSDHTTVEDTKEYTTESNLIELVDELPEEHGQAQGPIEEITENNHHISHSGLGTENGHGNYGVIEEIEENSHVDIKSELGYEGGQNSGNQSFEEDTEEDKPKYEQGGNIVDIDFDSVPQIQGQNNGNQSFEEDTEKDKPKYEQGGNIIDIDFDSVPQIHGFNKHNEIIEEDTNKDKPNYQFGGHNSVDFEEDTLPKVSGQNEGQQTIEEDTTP"}, "[3]": {"target": "T3, 4Q4K FnbA mutant (recombinant Gln103Ala, Gln105Ala, Gln783Ala, Gln830Ala, Lys157Ala, Lys503Ala, Lys620Ala, and Lys762Ala mutant, residues Ala1-Pro839)", "T3 chain": "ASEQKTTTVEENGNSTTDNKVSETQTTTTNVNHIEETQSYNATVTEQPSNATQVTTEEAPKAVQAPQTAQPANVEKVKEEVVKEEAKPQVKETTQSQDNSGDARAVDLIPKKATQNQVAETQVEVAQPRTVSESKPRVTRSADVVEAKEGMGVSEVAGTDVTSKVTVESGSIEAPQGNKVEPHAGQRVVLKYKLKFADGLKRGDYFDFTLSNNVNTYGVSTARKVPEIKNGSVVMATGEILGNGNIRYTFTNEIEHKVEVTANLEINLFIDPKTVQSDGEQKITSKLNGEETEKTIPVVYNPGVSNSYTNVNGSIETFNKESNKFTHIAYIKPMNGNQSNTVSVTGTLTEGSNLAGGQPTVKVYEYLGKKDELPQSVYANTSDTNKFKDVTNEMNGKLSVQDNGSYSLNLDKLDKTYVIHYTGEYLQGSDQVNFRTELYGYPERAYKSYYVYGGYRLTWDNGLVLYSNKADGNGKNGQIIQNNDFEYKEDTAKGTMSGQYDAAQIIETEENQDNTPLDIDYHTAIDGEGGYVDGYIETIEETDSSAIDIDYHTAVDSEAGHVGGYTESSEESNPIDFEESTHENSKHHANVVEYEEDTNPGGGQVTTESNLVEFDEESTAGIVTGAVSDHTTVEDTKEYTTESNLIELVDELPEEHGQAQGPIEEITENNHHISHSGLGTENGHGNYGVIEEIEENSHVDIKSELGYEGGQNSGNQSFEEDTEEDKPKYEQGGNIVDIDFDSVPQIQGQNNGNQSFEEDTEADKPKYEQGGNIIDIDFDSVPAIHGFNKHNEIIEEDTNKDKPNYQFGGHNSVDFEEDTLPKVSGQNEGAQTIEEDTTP"}},
  "data": [
    {"protein": "Factor XIIIa (Factor XIII, Haematologic Technologies, activated by thrombin) (protein) chain 1: GVNLQEFLNVTSVHLFKERWDTNKVDHHTDKYENNKLIVRRGQSFYVQIDFSRPYDPRRDLFRVEYVIGRYPQENKGTYIPVPIVSELQSGKWGAKIVMREDRSVRLSIQSSPKCIVGKFRMYVAVWTPYGVLRTSRNPETDTYILFNPWCEDDAVYLDNEKEREEYVLNDIGVIFYGEVNDIKTRSWSYGQFEDGILDTCLYVMDRAQMDLSGRGNPIKVSRVGSAMVNAKDDEGVLVGSWDNIYAYGVPPSAWTGSVDILLEYRSSENPVRYGQCWVFAGVFNTFLRCLGIPARIVTNYFSAHDNDANLQMDIFLEEDGNVNSKLTKDSVWNYHCWNEAWMTRPDLPVGFGGWQAVDSTPQENSDGMYRCGPASVQAIKHGHVCFQFDAPFVFAEVNSDLIYITAKKDGTHVVENVDATHIGKLIVTKQIGGDGMMDITDTYKFQEGQEEERLALETALMYGAKKPLNTEGVMKSRSNVDMDFEVENAVLGKDFKLSITFRNNSHNRYTITAYLSANITFYTGVPKAEFKKETFDVTLEPLSFKKEAVLIQAGEYMGQLLEQASLHFFVTARINETRDVLAKQKSTVLTIPEIIIKVRGTQVVGSDMTVTVEFTNPLKETLRNVWVHLDGPGVTRPMKKMFREIRPNSTVQWEEVCRPWVSGHRKLIASMSSDSLRHVYGELDVQIQRRPSM chain 2: EEKPCGFPHVENGRIAQYYYTFKSFYFPMSIDKKLSFFCLAGYTTESGRQEEQTTCTTEGWSPEPRCFKKCTKPDLSNGYISDVKLLYKIQENMRYGCASGYKTTGGKDEEVVQCLSDGWSSQPTCRKEHETCLAPELYNGNYSTTQKTFKVKDKVQYECATGYYTAGGKKTEEVECLTYGWSLTPKCTKLKCSSLRLIENGYFHPVKQTYEEGDVVQFFCHENYYLSGSDLIQCYNFGWYPESPVCEGRRNRCPPPPLPINSKIQTHSTTYRHGEIVHIECELNFEIHGSAEIRCEDGKWTEPPKCIEGQEKVACEEPPFIENGAANLHSKIYYNGDKVTYACKSGYLLHGSNEITCNRGKWTLPPECVENNENCKHPPVVMNGAVADGILASYATGSSVEYRCNEYYLLRGSKISRCEQGKWSSPPVCLEPCTVNVDYMNRNNIEMKWKYEGKVLHGDLIDFVCKQGYDLSPLTPLSELSVQCNRGEVKYPLCTRKESKGMCTSPPLIKHGVIISSTVDTYENGSSVEYRCFDHHFLEGSREAYCLDGMWTTPPLCLEPCTLSFTEMEKNNLLLKWDFDNRPHILHGEYIEFICRGDTYPAELYITGSILRMQCDRGQLKYPRCIPRQSTLSYQEPLRT", "values": [
      {"measurement": "Factor XIIIa-catalyzed incorporation of dansylcadaverine (fluorescence of the FnbA band on SDS-PAGE)", "setting": "[1]", "result": "incorporation of dansylcadaverine into the 1Q FnbA mutant was drastically reduced"},
      {"measurement": "Factor XIIIa-catalyzed incorporation of dansylcadaverine (fluorescence of the FnbA band on SDS-PAGE)", "setting": "[2]", "result": "the band corresponding to the wild-type FnbA undergoes a continual increase of fluorescence reflecting the enzymatic attachment of increasing molecules of the probe"},
      {"measurement": "Factor XIIIa-catalyzed incorporation of dansylcadaverine (fluorescence of the FnbA band on SDS-PAGE)", "setting": "[3]", "result": "Further reduction in fluorescence intensity was observed with the 4Q4K rFnbA mutant"}
    ]}
  ]
}
